Columns and labels:
[1] = target: T1, Pol31 (S. cerevisiae, UniProt P46957 1-487); assay: pull-down; GST–Pol32 (3 µg) or GST immobilised on glutathione–Sepharose beads, incubated with purified Pol31 (5 µg) and Rev1 (3 µg) together, overnight on ice; 50 mM Tris/HCl pH 7.5, 150 mM NaCl, 1 mM EDTA, 1 mM DTT, 10% glycerol, 0.01% Nonidet P-40; five washes, elution with 20 mM glutathione, SDS-PAGE; details: both partners purified
T1 construct: Pol31, noncatalytic subunit of DNA polymerase delta, S. cerevisiae; also called purified Pol31; source: S. cerevisiae BJ5464, overexpressed, purified on glutathione–Sepharose 4B beads, eluted by PreScission protease cleavage; not shown: GST, N-terminal, cleaved
T1 sequence (looked up): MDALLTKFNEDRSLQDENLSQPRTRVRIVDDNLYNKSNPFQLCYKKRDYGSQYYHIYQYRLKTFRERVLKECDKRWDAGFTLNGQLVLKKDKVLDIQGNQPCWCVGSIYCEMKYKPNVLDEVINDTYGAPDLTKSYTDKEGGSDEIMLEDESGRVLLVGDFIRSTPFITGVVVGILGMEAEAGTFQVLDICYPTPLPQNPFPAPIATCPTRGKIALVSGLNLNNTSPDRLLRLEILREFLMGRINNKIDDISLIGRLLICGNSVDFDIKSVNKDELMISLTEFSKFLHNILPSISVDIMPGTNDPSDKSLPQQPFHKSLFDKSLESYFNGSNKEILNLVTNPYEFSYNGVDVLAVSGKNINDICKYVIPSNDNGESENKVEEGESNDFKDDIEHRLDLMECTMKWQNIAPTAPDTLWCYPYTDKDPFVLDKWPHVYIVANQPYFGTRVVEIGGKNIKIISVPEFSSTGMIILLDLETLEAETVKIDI

[2] = target: T2, Rev1 (S. cerevisiae, UniProt P12689 1-985); assay: as above; details: both partners purified
T2 construct: Rev1, translesion synthesis DNA polymerase, S. cerevisiae; also called TLS polymerase Rev1; purified Rev1; source: S. cerevisiae BJ5464, overexpressed, purified on glutathione–Sepharose 4B beads, eluted by PreScission protease cleavage; not shown: GST, N-terminal, cleaved
T2 sequence (looked up): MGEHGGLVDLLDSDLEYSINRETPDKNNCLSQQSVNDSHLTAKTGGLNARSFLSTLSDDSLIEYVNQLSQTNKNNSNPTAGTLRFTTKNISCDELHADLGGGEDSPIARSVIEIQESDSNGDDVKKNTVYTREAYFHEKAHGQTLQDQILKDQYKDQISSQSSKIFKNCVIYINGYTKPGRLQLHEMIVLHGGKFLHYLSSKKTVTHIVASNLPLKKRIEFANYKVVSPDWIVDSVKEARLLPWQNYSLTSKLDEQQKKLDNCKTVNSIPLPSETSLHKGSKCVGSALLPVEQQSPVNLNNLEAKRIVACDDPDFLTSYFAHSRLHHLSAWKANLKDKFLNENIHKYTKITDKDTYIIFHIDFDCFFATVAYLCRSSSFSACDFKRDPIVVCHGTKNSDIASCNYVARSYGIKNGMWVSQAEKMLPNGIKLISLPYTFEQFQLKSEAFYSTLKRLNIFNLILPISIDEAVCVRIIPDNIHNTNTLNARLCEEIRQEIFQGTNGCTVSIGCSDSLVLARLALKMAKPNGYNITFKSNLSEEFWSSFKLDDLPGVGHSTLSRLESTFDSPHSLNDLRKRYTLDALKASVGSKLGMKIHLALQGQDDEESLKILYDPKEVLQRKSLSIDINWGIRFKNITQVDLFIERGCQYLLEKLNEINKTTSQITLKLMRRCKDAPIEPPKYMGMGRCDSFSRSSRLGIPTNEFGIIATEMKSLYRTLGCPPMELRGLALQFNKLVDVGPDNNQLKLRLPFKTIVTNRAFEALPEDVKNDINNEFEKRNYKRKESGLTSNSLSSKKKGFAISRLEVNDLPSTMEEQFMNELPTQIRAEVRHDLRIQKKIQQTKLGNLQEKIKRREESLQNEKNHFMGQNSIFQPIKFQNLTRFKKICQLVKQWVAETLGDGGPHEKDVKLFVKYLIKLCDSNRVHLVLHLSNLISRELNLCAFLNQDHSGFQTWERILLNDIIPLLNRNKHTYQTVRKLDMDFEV

B1: GST–Pol32 (natural protein, S. cerevisiae, UniProt P47110 1-350, looked up)
chain: MDQKASYFINEKLFTEVKPVLFTDLIHHLKIGPSMAKKLMFDYYKQTTNAKYNCVVICCYKDQTIKIIHDLSNIPQQDSIIDCFIYAFNPMDSFIPYYDIIDQKDCLTIKNSYELKVSESSKIIERTKTLEEKSKPLVRPTARSKTTPEETTGRKSKSKDMGLRSTALLAKMKKDRDDKETSRQNELRKRKEENLQKINKQNPEREAQMKELNNLFVEDDLDTEEVNGGSKPNSPKETDSNDKDKNNDDLEDLLETTAEDSLMDVPKIQQTKPSETEHSKEPKSEEEPSSFIDEDGYIVTKRPATSTPPRKPSPVVKRALSSSKKQETPSSNKRLKKQGTLESFFKRKAK
notes: Pol32, noncatalytic subunit of DNA polymerase delta, S. cerevisiae; source: S. cerevisiae BJ5464, overexpressed, purified on glutathione–Sepharose 4B beads; not shown: GST, N-terminal, kept
B1: binds [1]; binds [2].

— article PMC3897375, “Def1 Promotes the Degradation of Pol3 for Polymerase Exchange to Occur During DNA-Damage–Induced Mutagenesis in Saccharomyces cerevisiae” (PLoS Biology, 2014)
